Reference: patent US20220306765A1 (SUZHOU TRANSCENTA THERAPEUTICS, published 2022)

Experiments:
Test in all cases: FACS, transfected HEK293, 10 µg/ml antibody;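 note: antibody binding detected by flow cytometry with FITC-labelled anti-human IgG secondary, gated on RFP-positive cells, mutant signal relative to wild-type CLDN18.2-mRFP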
[1] = target: human CLDN18.2-mRFP E62A (human)
Experimental: (§1) The transfected HEK293-CLDN18.2 or HEK293-CLDN18.1 cell were resuspended in PBS with 2% BSA at density of 10\hat{ }5/well, 100 μl/well. […] Next, cells were washed 3 times by FACS washing buffer and incubated with 100 μl/well goat anti-hIgG (H+L)-FITC (1:200 dilution) at 4° C. for another 30 min. Finally, cells were washed 3 times by FACS washing buffer and analyzed by Flow Cytometry. To analyze binding to CLDN18.2 transfected cells, the RFP positive cells were used for control gating.
(§2) Subsequently, these plasmids of mutants and wild-type CLDN18.2-mRFP were transfected into HEK293 cell.

[2] = target: human CLDN18.2-mRFP W50A (human)
Experimental: as §1, §2

[3] = target: human CLDN18.2-mRFP M75A (human)
Experimental: as §1, §2

[4] = target: human CLDN18.2-mRFP F67A (human)
Experimental: as §1, §2

[5] = target: human CLDN18.2-mRFP R55A (human)
Experimental: as §1, §2

[6] = target: human CLDN18.2-mRFP V54A (human)
Experimental: as §1, §2

[7] = target: human CLDN18.2-mRFP Q77A (human)
Experimental: as §1, §2

[8] = target: human CLDN18.2-mRFP T41A (human)
Experimental: as §1, §2

[9] = target: human CLDN18.2-mRFP N38A (human)
Experimental: as §1, §2

[10] = target: human CLDN18.2-mRFP L35A (human)
Experimental: as §1, §2

[11] = target: human CLDN18.2-mRFP L70A (human)
Experimental: as §1, §2

[12] = target: human CLDN18.2-mRFP V43A (human)
Experimental: as §1, §2

[13] = target: T1, human CLDN18.2-mRFP1, wild-type (human)
T1 construct: human CLDN18.2 (amino acid 1-261) fused to mRFP1 (amino acid 1-225), transiently expressed in HEK293 cells; also called wild-type human CLDN18.2-mRFP
Experimental: as §1, §2

[14] = target: human CLDN18.2-mRFP R51A (human)
Experimental: as §1, §2

[15] = target: human CLDN18.2-mRFP T61A (human)
Experimental: as §1, §2

[16] = target: human CLDN18.2-mRFP S31A (human)
Experimental: as §1, §2

[17] = target: human CLDN18.2-mRFP F60A (human)
Experimental: as §1, §2

[18] = target: human CLDN18.2-mRFP L69A (human)
human CLDN18.2-mRFP L69A (human), sequence (chain, as listed by the source L69A L69A limits assumed): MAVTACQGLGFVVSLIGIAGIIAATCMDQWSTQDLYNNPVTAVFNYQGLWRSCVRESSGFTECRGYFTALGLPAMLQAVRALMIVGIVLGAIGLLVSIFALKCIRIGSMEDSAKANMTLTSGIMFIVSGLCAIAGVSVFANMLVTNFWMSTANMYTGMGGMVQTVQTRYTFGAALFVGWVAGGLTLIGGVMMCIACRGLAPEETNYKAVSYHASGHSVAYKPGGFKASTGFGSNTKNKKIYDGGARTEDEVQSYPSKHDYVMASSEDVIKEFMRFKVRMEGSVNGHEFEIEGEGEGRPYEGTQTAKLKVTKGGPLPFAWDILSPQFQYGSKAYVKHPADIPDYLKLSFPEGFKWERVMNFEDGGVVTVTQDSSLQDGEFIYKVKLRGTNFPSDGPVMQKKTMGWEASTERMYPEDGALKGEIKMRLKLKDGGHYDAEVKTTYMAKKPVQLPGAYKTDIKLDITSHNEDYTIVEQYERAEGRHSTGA
Experimental: as §1, §2

human CLDN18.2-mRFP R55A (human), sequence (chain, as listed by the source R55A R55A limits assumed): as the sequence (chain, as listed by the source L69A L69A limits assumed) above, with R55A, A69L counted along it
human CLDN18.2-mRFP M75A (human), sequence (chain, as listed by the source M75A M75A limits assumed): as the sequence (chain, as listed by the source L69A L69A limits assumed) above, with A69L, M75A counted along it
human CLDN18.2-mRFP V54A (human), sequence (chain, as listed by the source V54A V54A limits assumed): as the sequence (chain, as listed by the source L69A L69A limits assumed) above, with V54A, A69L counted along it
human CLDN18.2-mRFP S31A (human), sequence (chain, as listed by the source S31A S31A limits assumed): as the sequence (chain, as listed by the source L69A L69A limits assumed) above, with S31A, A69L counted along it
human CLDN18.2-mRFP F67A (human), sequence (chain, as listed by the source F67A F67A limits assumed): as the sequence (chain, as listed by the source L69A L69A limits assumed) above, with F67A, A69L counted along it
human CLDN18.2-mRFP N38A (human), sequence (chain, as listed by the source N38A N38A limits assumed): as the sequence (chain, as listed by the source L69A L69A limits assumed) above, with N38A, A69L counted along it
human CLDN18.2-mRFP F60A (human), sequence (chain, as listed by the source F60A F60A limits assumed): as the sequence (chain, as listed by the source L69A L69A limits assumed) above, with F60A, A69L counted along it
human CLDN18.2-mRFP L70A (human), sequence (chain, as listed by the source L70A L70A limits assumed): as the sequence (chain, as listed by the source L69A L69A limits assumed) above, with A69L, L70A counted along it
human CLDN18.2-mRFP R51A (human), sequence (chain, as listed by the source R51A R51A limits assumed): as the sequence (chain, as listed by the source L69A L69A limits assumed) above, with R51A, A69L counted along it
human CLDN18.2-mRFP E62A (human), sequence (chain, as listed by the source E62A E62A limits assumed): as the sequence (chain, as listed by the source L69A L69A limits assumed) above, with E62A, A69L counted along it
human CLDN18.2-mRFP T61A (human), sequence (chain, as listed by the source T61A T61A limits assumed): as the sequence (chain, as listed by the source L69A L69A limits assumed) above, with T61A, A69L counted along it
human CLDN18.2-mRFP V43A (human), sequence (chain, as listed by the source V43A V43A limits assumed): as the sequence (chain, as listed by the source L69A L69A limits assumed) above, with V43A, A69L counted along it
human CLDN18.2-mRFP Q77A (human), sequence (chain, as listed by the source Q77A Q77A limits assumed): as the sequence (chain, as listed by the source L69A L69A limits assumed) above, with A69L, Q77A counted along it
human CLDN18.2-mRFP T41A (human), sequence (chain, as listed by the source T41A T41A limits assumed): as the sequence (chain, as listed by the source L69A L69A limits assumed) above, with T41A, A69L counted along it
human CLDN18.2-mRFP W50A (human), sequence (chain, as listed by the source W50A W50A limits assumed): as the sequence (chain, as listed by the source L69A L69A limits assumed) above, with W50A, A69L counted along it
human CLDN18.2-mRFP L35A (human), sequence (chain, as listed by the source L35A L35A limits assumed): as the sequence (chain, as listed by the source L69A L69A limits assumed) above, with L35A, A69L counted along it

- binding percentage vs wild-type CLDN18.2 [1]: 23.1%
- binding percentage vs wild-type CLDN18.2 [2]: 5.05%
- binding percentage vs wild-type CLDN18.2 [3]: 73.6%
- binding percentage vs wild-type CLDN18.2 [4]: 79.9%
- binding percentage vs wild-type CLDN18.2 [5]: 49.7%
- binding percentage vs wild-type CLDN18.2 [6]: 87.2%
- binding percentage vs wild-type CLDN18.2 [7]: 63.4%
- binding percentage vs wild-type CLDN18.2 [8]: 41.6%
- binding percentage vs wild-type CLDN18.2 [9]: 57.6%
- binding percentage vs wild-type CLDN18.2 [10]: 75.4%
- binding percentage vs wild-type CLDN18.2 [11]: 82.1%
- binding percentage vs wild-type CLDN18.2 [12]: 59.4%
- binding percentage vs wild-type CLDN18.2 [13]: 100%
- binding percentage vs wild-type CLDN18.2 [14]: 22.1%
- binding percentage vs wild-type CLDN18.2 [15]: 51.6%
- binding percentage vs wild-type CLDN18.2 [16]: 76.8%
- binding percentage vs wild-type CLDN18.2 [17]: 64.4%
- binding percentage vs wild-type CLDN18.2 [18]: 54.8%
B1: 59A9-C (antibody, human IgG1, V domains shown)
VH: QITQKESGPGILQPSQTLSLTCSLSGFSLSTYFIGVGWIRQPSGKGLEWLAHIWWNDNKYYNTALKSRLTISKDTSNNQVFLKIASVDTADTATYYCARMGSGAWFTYWGQGTLVTVSA
VL: DIVMTQSPSSLTVTAGEKVTMSCKSSQSLLNSGNQKNYLTWYQQKPGQPPKLLIYWASTRESGVPDRFTGSGSGTDFTLTISSVQAEDLAVYYCQNDYYYPLTFGSGTKLEIK
notes: also called chimeric 59A9
